± gives the half width of the 95% confidence interval.

The source of these data is the supplement of paper PMC12764529.

Series [1] can be described thus: folding stability dG unfold (combined trypsin and chymotrypsin); higher = more stable. In a few lines: (§1)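 Mini-proteins designed to be under 80 residues and free of cysteine were carried in a PA-tagged cDNA display construct and digested with trypsin and with chymotrypsin. Each protease was applied at 11 threefold-diluted concentrations, alongside a no-protease condition, before sequencing. K50 came from Bayesian fitting of the sequencing counts, and unfolding free energy was obtained by comparing it with a sequence-predicted unfolded-state K50 and a shared folded-state K50, for each protease separately or for both together. Designs were retained only if their AlphaFold2 dimer inter-PAE exceeded 15.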

Series [2] in a line: folding stability dG unfold from chymotrypsin proteolysis; higher = more stable. The procedure, abridged: as §1
Series [3] in a line: folding stability dG unfold from trypsin proteolysis; higher = more stable. The procedure, abridged:
as §1

As for “SAGGSAGGSAIADEFAEKNPNFQVEVERHTFEMTQYDPDGGWRQHRMFMISITIVPPGDPLSAGGSAGGSAG [r3_358_TrROS]”, the “folding stability dG unfold” value in series [1] is 3.44 ± 0.3 kcal/mol; in series [2], 4.07 ± 0.2 kcal/mol; in series [3] it was 2.91 ± 0.19 kcal/mol.
Take “SAGGSAGGSAIKKTPNGKYLLKVTFTETYKDKKTGKTYKKTYTKTYVFDKKTNKWKSAEELSAGGSAGGSAG [r3_394_TrROS_Hall]”: the “folding stability dG unfold” value came out at 2.94 ± 0.33 kcal/mol in series [1], 3.12 ± 0.12 kcal/mol in series [2] and 2.41 ± 0.17 kcal/mol in series [3].
In the same order, the values of “SAGGSAGGSAKEFVAKVITPDGKPFTIPFGGETEEEAIEKLKEAIKKAFPEYKGVKIELEEKSAGGSAGGSA [r18_434_TrMRF]” are 0.791 ± 0.2 kcal/mol, 0.626 ± 0.27 kcal/mol and 0.873 ± 0.057 kcal/mol.
Regarding “SAGGSAGGSAKEIEVRVEKDEETGKYRVTIRVDGKEIEIEVDVPKTLEEAERKAKELLKELSAGGSAGGSAG [r3_104_TrROS_Hall]”, the entries for the “folding stability dG unfold” value in series [1], in series [2] and in series [3] were 2.66 ± 0.066 kcal/mol, 2.77 ± 0.035 kcal/mol and 2.53 ± 0.082 kcal/mol, respectively.
Consider “SAGGSAGGSAKENEKISIGPEITETGLDILEIKVDTNTKVVTIRFANKIYRIDKNGNISIVSSAGGSAGGSA [r18_445_TrMRF]”, for which the “folding stability dG unfold” value in series [1] was determined as 2.18 ± 0.17 kcal/mol; in series [2], 2.51 ± 0.13 kcal/mol; in series [3], 1.73 ± 0.065 kcal/mol.
“SAGGSAGGSAKEYIVRIKVRLKDGEEVEIEITVSEEELEELKKALESLPNIEEAEIEVFPLPSAGGSAGGSA [r18_157_TrROS_Hall]”: the “folding stability dG unfold” value in series [1] came to 3.63 ± 0.066 kcal/mol; in series [2], 3.53 ± 0.043 kcal/mol; in series [3] it was 3.82 ± 0.11 kcal/mol.
Consider “SAGGSAGGSAKHRVDDIQPQRHKNPDGEKPVRVRFPDNGQEERIPADNLDDIDVSDGMEVEPSAGGSAGGSA [r18_288_TrROS]”, for which the “folding stability dG unfold” value in series [1] is -0.855 ± 0.2 kcal/mol; in series [2], -0.631 ± 0.044 kcal/mol; in series [3] it was -1.8 ± 0.45 kcal/mol.
In the same order, the values of “SAGGSAGGSAKIFARAPPGQWYRITVKYKGGNGDKKEHTATIPPNNPPPDIEDVEIEPIPPGSAGGSAGGSA [r18_223_TrROS]” are 3.12 ± 0.25 kcal/mol, 3.15 ± 0.066 kcal/mol and 3.55 ± 0.14 kcal/mol.
With “SAGGSAGGSAKIIVNEDGYLIKITNKNGKEITIEMSEDELKELLKKLGIKKAEIVPLPKEKSAGGSAGGSAG [r3_141_TrROS_Hall]”, the “folding stability dG unfold” value in series [1] was found to be 1.72 ± 0.2 kcal/mol; in series [2], 2.34 ± 0.093 kcal/mol; in series [3] it was 0.382 ± 0.075 kcal/mol.
Take “SAGGSAGGSAKIMIPVDTPEEVKDIAEEFASNGNKEVEPHEDGWVSIEFPNGVPIEIWLPKDSAGGSAGGSA [r18_126_TrROS]”: the “folding stability dG unfold” value was 0.0345 ± 0.25 kcal/mol in series [1], 0.488 ± 0.062 kcal/mol in series [2] and -0.558 ± 0.28 kcal/mol in series [3].
The like results for “SAGGSAGGSAKKIKIKIKVYNPETKEVLELEIEVSEEEAEELAKKLAEELEKKGYKIEEVEISAGGSAGGSA [r18_3_TrROS_Hall]” were, in that order, 3.85 ± 0.12 kcal/mol, 3.47 ± 0.084 kcal/mol and 4.48 ± 0.35 kcal/mol.
In the same order, the values of “SAGGSAGGSAKKITVEITIEVNGKKYKVKAEIELDEETKTLTIKVTFPDGTEFEFTFKLPEESAGGSAGGSA [r18_239_TrROS_Hall]” are 5.76 ± 0.41 kcal/mol, 5.72 ± 0.13 kcal/mol and 3.86 ± 0.22 kcal/mol.
For the sequence “SAGGSAGGSAKKIVIKVKPGMTEEEILEEIAKKLGLKPEKIKKIEIERNKDGYLYVTIEIESAGGSAGGSAG [r3_26_TrROS_Hall]”, the “folding stability dG unfold” value in series [1] was 3.82 ± 0.083 kcal/mol; in series [2], 3.87 ± 0.065 kcal/mol; in series [3], 3.66 ± 0.16 kcal/mol.
Consider “SAGGSAGGSAKKKKKKKKYKPKPVKIFKIKLKLKLEKTKDGLKLKIEEIEIEEIATLEKGLSAGGSAGGSAG [r3_397_TrROS_Hall]”, for which the “folding stability dG unfold” value in series [1] came out at 2.43 ± 0.44 kcal/mol; in series [2] it was 2.72 ± 0.1 kcal/mol; in series [3], 1.88 ± 0.12 kcal/mol.
Consider “SAGGSAGGSAKKKKYKVKIKVINENGEIYEIDEIYFDEKTKKIYIKIKNKDGEEKVFEIELDSAGGSAGGSA [r18_370_TrROS_Hall]”, for which the “folding stability dG unfold” value in series [1] stood at 3.25 ± 0.13 kcal/mol; in series [2] it was 3.74 ± 0.051 kcal/mol; in series [3] it was 2.4 ± 0.059 kcal/mol.
For “SAGGSAGGSAKKPKKFKITKISTVKNKNGKTYYKLVIEDEKTKKKYVFVFPKNKEEILKALSAGGSAGGSAG [r3_57_TrROS_Hall]”, the “folding stability dG unfold” value came to 2.45 ± 0.15 kcal/mol in series [1], 2.53 ± 0.062 kcal/mol in series [2] and 2 ± 0.061 kcal/mol in series [3].
The like results for “SAGGSAGGSAKKPTAEEILKKLKLPEGAKIVKIEVEYDKKTKKVTIKIEIKVNGKTYTFEIKSAGGSAGGSA [r18_354_TrROS_Hall]” were, in that order, 3.94 ± 0.18 kcal/mol, 4.39 ± 0.11 kcal/mol and 2.81 ± 0.15 kcal/mol.
Take “SAGGSAGGSAKKTLTVKPGQTVTVKNKKTGKTYTATVEKDKDGNLTVKLENGKTYTINLKDLSAGGSAGGSA [r18_169_TrROS_Hall]”: the “folding stability dG unfold” value in series [1] came out at 1.8 ± 0.093 kcal/mol; in series [2], 2.15 ± 0.078 kcal/mol; in series [3], 0.967 ± 0.083 kcal/mol.
With “SAGGSAGGSAKKVVTVPEDATLEEIEELLKSGEKVTVVIHNKETGKTETLEFDSLEELKAASAGGSAGGSAG [r3_362_TrROS_Hall]”, the “folding stability dG unfold” value in series [1] is 1.53 ± 0.17 kcal/mol; in series [2], 1.91 ± 0.16 kcal/mol; in series [3] it was 0.601 ± 0.072 kcal/mol.
For “SAGGSAGGSAKKYVLLVTYRHPENGETRTVLVEVETEEEVERAVKELAPPEFDEVKVYVLPASAGGSAGGSA [r18_258_TrMRF]”, the “folding stability dG unfold” value in series [1] is 2.83 ± 0.12 kcal/mol; in series [2], 2.79 ± 0.046 kcal/mol; in series [3] it was 2.83 ± 0.15 kcal/mol.
Consider “SAGGSAGGSAKMIFVKNEDGTITMFTLNEDGYLTVTTVTLDKKTKKMTVETKTIKLTDPELLSAGGSAGGSA [r18_503_TrROS_Hall]”, for which the “folding stability dG unfold” value in series [1] worked out at 2.14 ± 0.17 kcal/mol; in series [2], 2.46 ± 0.081 kcal/mol; in series [3] it was 1.16 ± 0.027 kcal/mol.
For “SAGGSAGGSAKMIIRIRNKNGKIIELTLEEVAKKLGLSKEEMTAEEILKKLKENIEKVEILPSAGGSAGGSA [r18_403_TrROS_Hall]”, the “folding stability dG unfold” value in series [1] worked out at 3.1 ± 0.07 kcal/mol; in series [2], 3.18 ± 0.048 kcal/mol; in series [3] it was 2.9 ± 0.047 kcal/mol.
Regarding “SAGGSAGGSAKMVIVNITLKNKDGKEFTISIEADPSVIKNIIKKLFNAKINKIEIYPLSEALSAGGSAGGSA [r18_107_TrMRF]”, the “folding stability dG unfold” value came out at 2.28 ± 0.15 kcal/mol in series [1], 2.21 ± 0.08 kcal/mol in series [2] and 2.49 ± 0.11 kcal/mol in series [3].
In the case of “SAGGSAGGSAKPKPVETVEVTVTGKDGKKYKVTVVYDEKTGKLYVKYNGKIYKVDSLEEALKSAGGSAGGSA [r18_67_TrROS_Hall]”, the “folding stability dG unfold” value in series [1] worked out at 3.86 ± 0.2 kcal/mol; in series [2], 4.12 ± 0.073 kcal/mol; in series [3], 2.44 ± 0.19 kcal/mol.
As for “SAGGSAGGSAKPKVVLVEYDEKTGKFKIVFPDGKELEITGLTPEQIKELAKSLGADYVIIESAGGSAGGSAG [r3_78_TrMRF]”, the entries for the “folding stability dG unfold” value in series [1], in series [2] and in series [3] were 3.83 ± 0.09 kcal/mol, 4.06 ± 0.098 kcal/mol and 3.38 ± 0.12 kcal/mol, respectively.
For “SAGGSAGGSAKPLKKLVLLLKVKGPFEEVEKILNEEFGVKKIVAFKDPETDEVYALIYLGDPSAGGSAGGSA [r18_275_TrMRF]”, the “folding stability dG unfold” value in series [1] was determined as 2.62 ± 0.085 kcal/mol; in series [2] it was 2.86 ± 0.04 kcal/mol; in series [3] it was 2.23 ± 0.052 kcal/mol.
